# Laboratory results from paper PMC5433297, “Isoflavone Malonyltransferases GmIMaT1 and GmIMaT3 Differently Modify Isoflavone Glucosides in Soybean (Glycine max) under Various Stresses” (Frontiers in Plant Science, 2017).
# B1: GmIMaT1 (Glycine max) (protein)
# chain: MASHNIKIHDHLRVSPPSATEISLSLTFFDLFWLRFHPVERIFFYTLPTPHSNPSIFYSKLVPKLKTSLSRTLQHFPPLAGNVVWPDNTPNPTVQYTPGDSVSLVVAESEADFNHVLDNSPHKASELRCLVPHLDSSDSHASVVSFQITLFPNRGFSIGISTHHAVLDGKSSTIFIKAWASLCKTYNDDESSESSSPSLAPELKPFFDRTAIKDPSEIGLNFTVNWTEILTKFFPNENSDGRCLKLLPFPPRLEDHVRASFALTGADLEKLRKRVLSKWDIVDRGAESEPPRLSSFVLTCAYALACIAKAIHGVEKEKEKFAFAFTVDCRARLEPPIHDNYFGNCVWGHVVDAEPLDFIKEEAFAIVAKSIHSKIKMILDEGIFHGMESAFSRYESLGKDGVEIMGIAGSNRFGVYGTDFGWGKPAKVEIASVDRALTIGFAESKDGNDGVQVGLVLKKHVMDLFCTLFRQGMLDD
# notes: full-length ORF (476 residues), His-tagged fusion (pDEST17), E. coli BL21 (DE3), nickel resin, partially purified; cDNA from soybean roots
# B2: GmIMaT3 (Glycine max) (protein)
# chain: MAETPTLRIHEVCPISPPQETPSTTIPFTFFDVLWLRLPPVERLFFYSFPNPTTTSSFFDTTILPNLKHSLSLTLHHFPPLAGTITWPLHTPLPLIAYTPGNSIPFRIAESNADFNTLSSNLSEVNNHRRNLIPHLPTSHEEASVLALQLTHFPNQGYSIGITSHHAALDGKSSTLFMKSWAHICSYLNTSPEEPLLFSLPKHLTPSFDRSVIRDPLGIGEIYAKSWTSFGGATNDRSLNVWDTLGGNQTDLVKGLFELTPLDIKKLKKLAESKFVVGDNKKKVRVTSFTVTCAYLLSCAVKAEQPNCERVHFVFNVDCRARLDPPIPETYFGNCVVALLASAKREELLGEEAFFKSVIGISEELNGLEGDVLNGADKWIPKIQSVVSETPRLFSVAGSPRFEVYGIDFGWGRPEKVDVASVNKTGAFSLSESRDHSGGIQIGLALTKNQMEAFSRVFAQGLESLES
# notes: full-length ORF (467 residues), His-tagged fusion (pDEST17), E. coli BL21 (DE3), nickel resin, partially purified; cDNA from soybean roots; allele with three amino acid differences from GmMT7 and GmIF7MaT
# Experiments:
# Assay in all cases: HPLC malonyltransferase assay, Lineweaver-Burk
# Format in all cases: biochemical, Glycine max
# [1] = substrate: O=c1c(-c2ccc(O)cc2)coc2cc(O[C@@H]3O[C@H](CO)[C@@H](O)[C@H](O)[C@H]3O)cc(O)c12; settings: 40 μM malonyl-CoA, 20 mM potassium phosphate pH 7.2, 30°C
# Excerpt: (§1) HPLC malonyltransferase assay, Lineweaver-Burk on GmIMaT1
# [2] = substrate: CC(C)(COP(=O)(O)OP(=O)(O)OC[C@H]1O[C@@H](n2cnc3c(N)ncnc32)[C@H](O)[C@@H]1OP(=O)(O)O)[C@@H](O)C(=O)NCCC(=O)NCCSC(=O)CC(=O)O; settings: 60 μM genistin as acceptor, 20 mM potassium phosphate pH 7.2, 30°C
# Excerpt: as §1
# [3] = substrate: COc1cc2c(=O)c(-c3ccc(O)cc3)coc2cc1O[C@@H]1O[C@H](CO)[C@@H](O)[C@H](O)[C@H]1O; settings: 40 μM malonyl-CoA, 20 mM potassium phosphate pH 7.2, 30°C
# Excerpt: as §1
# [4] = substrate: O=c1c(-c2ccc(O)cc2)coc2cc(O[C@@H]3O[C@H](CO)[C@@H](O)[C@H](O)[C@H]3O)ccc12; settings: 40 μM malonyl-CoA, 20 mM potassium phosphate pH 7.2, 30°C
# Excerpt: as §1
# [5] = substrate: O=c1c(-c2ccc(O)cc2)coc2cc(O[C@@H]3O[C@H](CO)[C@@H](O)[C@H](O)[C@H]3O)cc(O)c12; settings: 40 μM malonyl-CoA, 20 mM potassium phosphate pH 7.2, 30°C; remark: listed apart in the source
# Excerpt: (§2) HPLC malonyltransferase assay, Lineweaver-Burk on GmIMaT3
# [6] = substrate: CC(C)(COP(=O)(O)OP(=O)(O)OC[C@H]1O[C@@H](n2cnc3c(N)ncnc32)[C@H](O)[C@@H]1OP(=O)(O)O)[C@@H](O)C(=O)NCCC(=O)NCCSC(=O)CC(=O)O; settings: 60 μM genistin as acceptor, 20 mM potassium phosphate pH 7.2, 30°C; remark: listed apart in the source
# Excerpt: as §2
# [7] = substrate: COc1cc2c(=O)c(-c3ccc(O)cc3)coc2cc1O[C@@H]1O[C@H](CO)[C@@H](O)[C@H](O)[C@H]1O; settings: 40 μM malonyl-CoA, 20 mM potassium phosphate pH 7.2, 30°C; remark: listed apart in the source
# Excerpt: as §2
# [8] = substrate: O=c1c(-c2ccc(O)cc2)coc2cc(O[C@@H]3O[C@H](CO)[C@@H](O)[C@H](O)[C@H]3O)ccc12; settings: 40 μM malonyl-CoA, 20 mM potassium phosphate pH 7.2, 30°C; remark: listed apart in the source
# Excerpt: as §2
Protein,Km [1] [µM],kcat/Km [1] [M⁻¹ s⁻¹],Km [2] [µM],kcat/Km [2] [M⁻¹ s⁻¹],Km [3] [µM],kcat/Km [3] [M⁻¹ s⁻¹],Km [4] [µM],kcat/Km [4] [M⁻¹ s⁻¹],Km [5] [µM],kcat/Km [5] [M⁻¹ s⁻¹],Km [6] [µM],kcat/Km [6] [M⁻¹ s⁻¹],Km [7] [µM],kcat/Km [7] [M⁻¹ s⁻¹],Km [8] [µM],kcat/Km [8] [M⁻¹ s⁻¹]
B1,23.04 ± 1.5,2.47e+06 ± 100000,18.30 ± 1.2,440000 ± 70000,13.11 ± 0.92,5.21e+06 ± 140000,36.28 ± 3.2,820000 ± 10000,–,–,–,–,–,–,–,–
B2,–,–,–,–,–,–,–,–,26.67 ± 0.86,1.54e+06 ± 140000,25.59 ± 2.2,750000 ± 120000,12.94 ± 1.3,5.61e+06 ± 1.25e+06,30.12 ± 2.6,1.15e+06 ± 120000
